Test results taken from patent US20050143559.
Read-outs that look alike come from different tables or passages of the source.

Assays:
[1] = system: tryparedoxin peroxidase isolated from Crithidia fasciculata
[2] = molecular target: tryparedoxin peroxidase isolated from Crithidia fasciculata; remark: listed apart in the source

In the case of “authentic tryparedoxin I isolated from Crithidia fasciculata”, the “specific activity (coupled NADPH consumption assay)” value [1] is reported as 2.3 U/mg for the authentic enzyme.

With TQSLPSSFLASLEHHHHHH [recombinant tryparedoxin II containing a His tag (expressed from pET/TXN II H6 in E. coli BL21(DE3))] the “specific activity (coupled NADPH consumption assay)” value [2] was 7.7 U/mg.
